Among the data in US20260028422A1 (CONCEPT TO MEDICINE BIOTECH, published 2026) are EC50, Top and IC50 values, retold here.

Positions count from the first letter of the chain named.

B1: 265F11B5 chimeric monoclonal antibody (antibody, V domains shown)
VH: QVQLQQSGPELVKPGASVRLSCKASGYTFTTYDINWVKQRPGLGLEWIGWIYPRDGYTKYNEKFKGRATLAVDTSSSTAYMELHSLTSEDSAVYFCTRGYYDNLYYFDYWGQGTTLTVSS
VL: EIVLTQSPTTVAASPGEKITITCSASSIISSNYFHWYQQRPGFSPKLLIYRTSNLASGVPARFSGSGSGTSYSLTIGTMEAEDVATYYCQQGRSVPLTFGAGTKLELK
B2: 10F7D9 chimeric monoclonal antibody (antibody, V domains shown)
VH: QIQLVQSGPELKKPGETVKISCKASGYTFTNYGMNWVKQAPGKGLKWMGWINTYTGEPTYADDFKGRFAFSLETSASTAYLQINNLKNEDLATYFCATYGHYAWFAYWGQGTLVTVSA
VL: QIVLSQSPAILSASPGEKVTMTCRASSSVSYMHWYQQKSGSSPKPWIYATSNLASGVPARFSGSGSGTSYSLTISRVEAEDAATYFCQQWGTKPLTFGAGTKLELK
B3: 254B4D9 chimeric monoclonal antibody (antibody, V domains shown)
VH: QIQLVQSGPELKKPGETVKISCKASGYTFTAYGMSWVKQAPGKGLQWMGWINTYSGVPTYTDDFKGRFAFSLEASASTAFLQINNLKNEDTSTYFCARRAAVVAKYWYFDVWGTGTTVTVSS
VL: DIQMTQSPSSLFASLGGKVIITCKSSQDINKRISWYQHKPGKGPRLLIHSTSSLQPGIPLRFSGSGSGRDYSFSISNLEPEDIATYFCLQYDNLLTFGAGTKLELK
B4: 276C2D1 chimeric monoclonal antibody (antibody, V domains shown)
VH: B1 VH with R19K, T31S, R67K, T97A, D102S
VL: B1 VL with I2V, T9P, V11M, I28S, F34L, R40K, V95I
B5: 280C6A3 chimeric monoclonal antibody (antibody, V domains shown)
VH: B1 VH with R19K, T28S, L43Q, Y57S, R67K, A71T, V72L, S77N, E82G, T97A
VL: B1 VL with V11M, I28S, I29V, F34L, R40K, S94I
B6: 293C2B7 chimeric monoclonal antibody (antibody, V domains shown)
VH: B1 VH with R19K, T31S, L43Q, N61K, R67K, A71T, T97A, Y100F, D102S
VL: B1 VL with V11M, A13T, I28S, F34L, R40K, A61D, V95I
B7: 300A5A3 chimeric monoclonal antibody (antibody, V domains shown)
VH: B1 VH with R19K, R67K, Y80S, T97A, Y109N, Q112P
VL: B1 VL with I2N, F34L, R40K, V84A
B8: h13B4.v16 benchmark antibody (antibody, V domains shown)
VH: EVQLVESGEGLVQPGGSLRLSCAASGFSLSSYAMGWVRQAPGKGLEYVGIINSYGNTYYANWAKGRFTISRDNSKNTVYLQMGSLRAEDMAVYYCARDPGVSSNLWGRGTLVTVSS
VL: DIQMTQSPSTLSASVGDRVTITCQASQNIYSGLAWYQQKPGKAPKLLIYGASKLASGVPSRFSGSGSGTEFTLTISSLQPDDFATYYCQATYYSSNSVAFGGGTKVEIK

For the first test, the target named is T1, human MerTK-his protein (human, UniProt Q12866 21-505).
T1 construct: extracellular domain; also called hMerTK-His; human MerTK protein
T1 sequence (looked up): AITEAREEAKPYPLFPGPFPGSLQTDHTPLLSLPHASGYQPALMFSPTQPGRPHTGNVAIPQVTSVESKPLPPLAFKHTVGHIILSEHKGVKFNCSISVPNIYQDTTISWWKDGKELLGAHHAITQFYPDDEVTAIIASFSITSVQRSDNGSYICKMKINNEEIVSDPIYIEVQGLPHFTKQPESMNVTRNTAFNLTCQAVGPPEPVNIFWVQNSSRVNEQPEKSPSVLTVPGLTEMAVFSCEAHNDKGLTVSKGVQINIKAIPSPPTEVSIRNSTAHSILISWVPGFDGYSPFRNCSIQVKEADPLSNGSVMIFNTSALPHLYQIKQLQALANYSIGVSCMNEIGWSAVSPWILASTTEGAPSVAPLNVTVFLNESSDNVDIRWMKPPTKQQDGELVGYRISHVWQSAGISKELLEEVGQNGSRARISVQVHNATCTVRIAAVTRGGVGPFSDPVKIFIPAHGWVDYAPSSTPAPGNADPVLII
The test can be described thus: ELISA, plate coated with human MerTK-his, OD 450nm. How it is done: To evaluate the binding activity, the chimeric mAbs were subjected to ELISA test. Briefly, 96-well plates were coated with human or cyno MerTK-his protein at 2 μg/mL in PBS, 100 μL/well at 4° C. overnight, then blocked with 150 μL/well of 1% BSA. Five-fold dilutions of MerTK antibodies starting from 20 nM were added to each well and incubated for 1 hour at room temperature. The plates were washed with PBS/Tween-20 and then incubated with goat anti-human IgG Fe antibody conjugated with Horse Radish Peroxidase (HRP) for 30 minutes (mins) at room temperature. After washing, the plates were developed with TMB substrate and subsequent stop solution was added to complete the reaction. The signal from each well was read by spectrophotometer at OD 450 nm.
To evaluate the antigen binding activity, the humanized antibodies were subjected to ELISA test as described before.
For the molecule B1, the EC50 came to 0.036 nM.
As for B2, the EC50 came out at 0.024 nM.
Molecule B3 displayed an EC50 of 0.095 nM.

In another test the target is T2, human MerTK expressed on cells (human, UniProt Q12866 21-999).
T2 construct: whole, on cells; also called CHO-K1-hMerTK; CHO-K1-MerTK
T2 sequence (looked up): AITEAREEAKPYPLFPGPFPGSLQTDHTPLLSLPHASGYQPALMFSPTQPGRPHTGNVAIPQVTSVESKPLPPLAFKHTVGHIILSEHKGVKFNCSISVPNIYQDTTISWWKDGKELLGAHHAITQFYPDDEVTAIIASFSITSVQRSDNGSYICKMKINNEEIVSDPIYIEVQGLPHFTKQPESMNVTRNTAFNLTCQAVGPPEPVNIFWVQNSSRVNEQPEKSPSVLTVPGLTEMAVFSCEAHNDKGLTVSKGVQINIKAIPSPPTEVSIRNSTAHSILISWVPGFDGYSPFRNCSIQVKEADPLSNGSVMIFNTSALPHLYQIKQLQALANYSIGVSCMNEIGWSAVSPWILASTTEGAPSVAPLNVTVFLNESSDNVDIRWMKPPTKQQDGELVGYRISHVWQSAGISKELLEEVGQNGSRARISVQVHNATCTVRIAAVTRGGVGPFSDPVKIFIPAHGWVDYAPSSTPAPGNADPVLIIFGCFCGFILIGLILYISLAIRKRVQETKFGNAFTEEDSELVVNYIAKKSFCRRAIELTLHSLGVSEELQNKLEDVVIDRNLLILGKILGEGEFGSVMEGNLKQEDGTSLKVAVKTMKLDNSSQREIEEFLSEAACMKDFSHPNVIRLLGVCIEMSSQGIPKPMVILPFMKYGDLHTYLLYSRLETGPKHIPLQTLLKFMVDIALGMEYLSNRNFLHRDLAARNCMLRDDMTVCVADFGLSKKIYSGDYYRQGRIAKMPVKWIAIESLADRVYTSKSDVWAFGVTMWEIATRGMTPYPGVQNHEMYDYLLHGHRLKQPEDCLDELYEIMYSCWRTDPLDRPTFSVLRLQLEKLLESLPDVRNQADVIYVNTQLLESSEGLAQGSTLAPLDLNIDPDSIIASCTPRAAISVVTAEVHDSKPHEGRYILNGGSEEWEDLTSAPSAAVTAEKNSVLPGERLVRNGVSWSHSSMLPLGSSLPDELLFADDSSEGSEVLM
Kind of test: FACS on SK-MEL-5 cells expressing human MerTK, geometric mean. How it is done: To evaluate the binding properties on MerTK expressed on cells, the chimeric monoclonal antibodies were analyzed for their binding to human melanoma cell line SK-MEL-5 expressing MerTK by FACS analysis. Briefly, SK-MEL-5 cells were firstly incubated with 5-fold serially diluted chimeric mAbs starting at 20 nM at 4° C. for 30 mins. After washing by FACS buffer, the PE conjugated anti-human IgG secondary antibody was incubated with the cell-antibody complex in the wells at 4° C. for 30 mins to detect the antibodies those bound to the cells. The MFI of PE was evaluated by QuantAnalyzer 16.
B4 displayed an EC50 of 0.044 nM and a Top of 6950 Geometric Mean.
In the same order, the values of B5 are 0.039 nM and 7490 Geometric Mean.
With B1, a half-maximal effect (EC50) was put at 0.048 nM and the Top worked out at 7750 Geometric Mean.
As to B6, the EC50 turned out to be 0.055 nM and the Top amounted to 6960 Geometric Mean.
On to B7, for which the EC50 was 0.074 nM and the Top was determined as 7490 Geometric Mean.
In the same order, the values of B8 are 0.12 nM and 4530 Geometric Mean.

A further test deals with T3, Human MerTK-mouse Fc fusion protein (human, UniProt Q12866 21-499, limits assumed).
T3 construct: also called hMerTK; Human MerTK-mouse Fe fusion protein
T3 sequence (looked up): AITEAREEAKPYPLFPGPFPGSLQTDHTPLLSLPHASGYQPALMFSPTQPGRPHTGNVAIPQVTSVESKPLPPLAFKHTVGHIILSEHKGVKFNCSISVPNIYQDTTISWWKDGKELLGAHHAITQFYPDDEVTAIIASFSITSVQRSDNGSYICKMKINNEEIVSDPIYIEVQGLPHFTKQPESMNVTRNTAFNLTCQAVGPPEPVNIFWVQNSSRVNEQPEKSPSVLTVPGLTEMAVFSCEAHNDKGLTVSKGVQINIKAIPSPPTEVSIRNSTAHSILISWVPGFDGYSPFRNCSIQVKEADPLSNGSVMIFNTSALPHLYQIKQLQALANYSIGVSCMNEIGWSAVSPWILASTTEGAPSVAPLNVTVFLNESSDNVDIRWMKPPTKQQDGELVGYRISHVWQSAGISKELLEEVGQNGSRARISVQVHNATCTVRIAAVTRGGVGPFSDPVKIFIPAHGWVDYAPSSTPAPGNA
The test can be described thus: FACS blocking: binding of human MerTK-mouse Fc to Jurkat cells overexpressing human Gas6, MFI (AF488). How it is done: To evaluate the blocking effects of anti-hMerTK mAbs on hMerTK binding to its ligand hGas6, a receptor blocking assay was set-up. Briefly, Jurkat cells engineered to overexpress human Gas6 were added to the 96-well microplates at a density of 5×10⁴ cells per well. Human MerTK-mouse Fe fusion protein (50 μL/well, […]) and the MerTK chimeric antibodies with a 3-fold serial dilution starting from 120 nM at a volume of 50 μL were added to the 96-well plates and incubated at 4° C. for 30 mins. After washing with FACS buffer, the plates were incubated with diluted Alex Fluor 488 conjugated goat anti-mouse IgG antibody for 30 mins at 4′C. After washing, the plates were analyzed by QuantAnalyzer 16.
Turning to B4, the IC50 was 0.813 nM.
With B5, the IC50 came out at 0.701 nM.
B1: the IC50 came out at 0.798 nM.
In turn, B6 had an IC50 of 0.779 nM.
In the case of B7, the IC50 was found to be 0.867 nM.
With B8, the IC50 was 0.836 nM.
On to B3, for which the IC50 is about 0.773 nM.
